The values that follow come from patent CN116355088A.

One experiment has as its target 生物素标记的抗原多肽 (human) (UniProt P29400). Kind of experiment: BLI (Fortebio Octet), biotinylated peptide on SA biosensor, antibody at 100 to 1.56 nM. Background: Biolayer interferometry detects binding as a change in optical thickness at a sensor tip.
The next experiment deals with 人IV型胶原蛋白α5链多肽 (human) (UniProt P29400). As to the kind of experiment: indirect ELISA, plate coated with 0.5 μg/ml peptide, purified antibody in 3-fold dilutions from 1 μg/ml.

B1: 18G6-2 (antibody, V domains shown)
VH: QVQLQQPGAELVKPGASVKVSCKASGYTFTNYWMHWVKQRPGQGLEWIGRIHPSDSAINYSPKFTGKATLTVDKSSSTAYMQLTSLTSEDSAVYYCAIGGYDSYWGQGTLVTVSA
VL: DIQMTQTTSSLSASLGDRVTISCRASQDISNYLNWYQQKPDGTVKLLIYYTSTLHSGVPSRFSGSGSGTDYSLTINSLAQEDIATYFCQQVNTLPWTFGGGTKLAIK
With B1, the Kd (in general, a measure of binding affinity in units of concentration) with 生物素标记的抗原多肽 (human) came out at 3.18 nM. The EC50 (commonly the concentration at which the effect is half-maximal) with 人IV型胶原蛋白α5链多肽 (human) was 0.0221 µg/mL.
